Molecular target: hic1_human HIC1 (UniProt Q14526)
Sequence (Q14526 whole entry): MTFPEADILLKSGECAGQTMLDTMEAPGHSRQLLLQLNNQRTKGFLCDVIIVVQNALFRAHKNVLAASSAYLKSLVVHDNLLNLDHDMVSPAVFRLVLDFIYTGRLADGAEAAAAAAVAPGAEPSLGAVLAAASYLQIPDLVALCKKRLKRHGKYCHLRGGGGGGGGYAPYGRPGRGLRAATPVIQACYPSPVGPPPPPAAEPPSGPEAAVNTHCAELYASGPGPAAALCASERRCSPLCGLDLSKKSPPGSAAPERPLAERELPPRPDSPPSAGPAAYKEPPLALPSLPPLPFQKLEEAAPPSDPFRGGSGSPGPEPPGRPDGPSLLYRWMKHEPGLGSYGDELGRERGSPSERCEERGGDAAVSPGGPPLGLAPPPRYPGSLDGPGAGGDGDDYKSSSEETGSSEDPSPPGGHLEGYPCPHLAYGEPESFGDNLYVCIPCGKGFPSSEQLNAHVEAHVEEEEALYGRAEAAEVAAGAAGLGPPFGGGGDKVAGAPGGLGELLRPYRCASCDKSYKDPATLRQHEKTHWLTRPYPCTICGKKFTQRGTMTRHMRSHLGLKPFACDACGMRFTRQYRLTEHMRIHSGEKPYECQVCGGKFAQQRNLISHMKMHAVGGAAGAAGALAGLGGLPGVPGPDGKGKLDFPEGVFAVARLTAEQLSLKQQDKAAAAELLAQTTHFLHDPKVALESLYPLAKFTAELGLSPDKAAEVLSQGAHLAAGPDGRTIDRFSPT

C-terminal-binding protein 2 (Mus musculus), P56546 V72R, sequence (P56546 whole entry V72R): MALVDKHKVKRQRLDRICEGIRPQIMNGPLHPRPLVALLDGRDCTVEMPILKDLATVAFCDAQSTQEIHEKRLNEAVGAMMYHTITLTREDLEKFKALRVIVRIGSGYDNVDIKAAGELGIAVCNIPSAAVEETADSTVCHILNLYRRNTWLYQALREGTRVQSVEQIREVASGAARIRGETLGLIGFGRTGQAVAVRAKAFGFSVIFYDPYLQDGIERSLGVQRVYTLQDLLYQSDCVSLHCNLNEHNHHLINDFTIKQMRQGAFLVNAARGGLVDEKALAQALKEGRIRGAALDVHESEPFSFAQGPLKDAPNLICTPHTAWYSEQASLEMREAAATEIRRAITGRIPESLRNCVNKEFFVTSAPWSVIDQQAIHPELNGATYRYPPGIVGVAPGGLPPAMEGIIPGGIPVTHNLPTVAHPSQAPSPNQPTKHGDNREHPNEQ
C-terminal-binding protein 2 (Mus musculus), P56546 A58E, sequence (P56546 whole entry A58E): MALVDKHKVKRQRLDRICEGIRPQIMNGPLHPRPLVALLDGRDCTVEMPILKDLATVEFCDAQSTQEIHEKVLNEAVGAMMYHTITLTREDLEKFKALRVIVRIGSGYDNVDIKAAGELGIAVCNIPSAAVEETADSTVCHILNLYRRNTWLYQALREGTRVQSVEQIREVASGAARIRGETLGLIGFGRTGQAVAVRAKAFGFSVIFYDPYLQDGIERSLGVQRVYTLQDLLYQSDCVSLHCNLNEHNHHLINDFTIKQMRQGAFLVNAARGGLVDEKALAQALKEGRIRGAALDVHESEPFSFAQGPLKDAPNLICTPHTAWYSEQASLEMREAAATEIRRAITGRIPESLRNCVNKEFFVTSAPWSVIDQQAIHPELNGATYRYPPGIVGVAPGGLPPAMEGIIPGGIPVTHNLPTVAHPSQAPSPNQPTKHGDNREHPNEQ

effect of a mutation on the interaction | Substance
disrupting interaction | C-terminal-binding protein 2 (Mus musculus), P56546 A58E
disrupting interaction | C-terminal-binding protein 2 (Mus musculus), P56546 V72R
